{"source": "patent US20200109188A1", "experiment_in_all_cases": "ELISA, rHA coated", "key": {"[1]": {"molecular_target": "recombinant HA subtype H5 (A/Vietnam/1203/04 (H5N1)) (influenza A virus)"}, "[2]": {"molecular_target": "recombinant HA subtype H3 (A/Perth/16/09 (H3N2)) (influenza A virus)"}, "[3]": {"molecular_target": "recombinant HA subtype H9 (A/chicken/HK/G9/97 (H9N2)) (influenza A virus)"}, "[4]": {"molecular_target": "recombinant HA subtype H2 (A/Swine/MO/06 (H2N3)) (influenza A virus)"}, "[5]": {"molecular_target": "recombinant HA subtype H7 (A/Netherlands/219/03 (H7N7)) (influenza A virus)"}, "[6]": {"molecular_target": "recombinant HA subtype H6 (A/teal/HK/W312/97 (H6N1)) (influenza A virus)"}}}
{"binder": "Antibody 8 (antibody, V domains shown) VH: QVQLQQSGPGLVKPSQTLSLTCVISGDTVSSNRATWNWMRQSPLRGLEWLGRTYYRSKWYNDYAVSVKSRVVINPDTSKNQVSLQLNTVTPDDSGVYFCARGGHITVFGVNIDAFDIWGLGTKVTVSS VL: DIQMTQSPSSLSASVGDRVTISCRASQRLNSYLHWYQQTPGQAPKLLIYATSTLQSGVSPRFSGSGSGTDFTLTISSLQPEDVATYYCQLSRTFGHGTKVEIK", "values": [{"measurement": "EC50", "setting": "[1]", "result": 0.044, "unit": "µg/mL"}, {"measurement": "EC50", "setting": "[2]", "result": 0.067, "unit": "µg/mL"}, {"measurement": "EC50", "setting": "[3]", "result": "> 6", "unit": "µg/mL"}, {"measurement": "EC50", "setting": "[4]", "result": 0.058, "unit": "µg/mL"}, {"measurement": "EC50", "setting": "[5]", "result": 0.015, "unit": "µg/mL"}, {"measurement": "EC50", "setting": "[6]", "result": 0.091, "unit": "µg/mL"}]}
{"binder": "Antibody 5 (antibody, V domains shown) VH: QVQLQQSGPGLVKPSQTLSLTCAISGDRVSSNSAVWNWIRQSPSRGLEWLGRTYYRSKWYYDYAESVKSRIVIDPDTSKNQVSLQLNSVTPEDSAIYYCARGGHITVFGLNIDAYDIWGQGAMVTVSS VL: DIQMTQSPSSLSASVGDRVTISCRAQSLSSYLHWYQQKPGQPPKLLIYAATTLQSGVPSRFSGSGSGTDFTLTISTFQAEDVATYYCQQSRTFGQGTKVEIK", "values": [{"measurement": "EC50", "setting": "[1]", "result": 0.041, "unit": "µg/mL"}, {"measurement": "EC50", "setting": "[2]", "result": 0.03, "unit": "µg/mL"}, {"measurement": "EC50", "setting": "[3]", "result": "> 6", "unit": "µg/mL"}, {"measurement": "EC50", "setting": "[4]", "result": 0.048, "unit": "µg/mL"}, {"measurement": "EC50", "setting": "[5]", "result": 0.024, "unit": "µg/mL"}, {"measurement": "EC50", "setting": "[6]", "result": 0.047, "unit": "µg/mL"}]}
{"binder": "Antibody 6 (antibody, V domains shown) VH: QVQLQQSGPGLVKPSQTLSLTCAISGDRVSSNSAVWNWIRQSPSRGLEWLGRTYYRSKWYYDYAESVKSRIVIDPDTSKNQVSLQLNSVTPEDSAIYYCARGGHITEFGLNIDAYDIWGQGAMVTVSS VL: DIQMTQSPSSLSASVGDRVTISCRAQSLSSYLHWYQQKPGQPPKLLIYAATTLQSGVPSRFSGSGSGTDFTLTISTFQAEDVATYYCQQSRTFGQGTKVEIK", "values": [{"measurement": "EC50", "setting": "[1]", "result": 0.256, "unit": "µg/mL"}, {"measurement": "EC50", "setting": "[2]", "result": 0.064, "unit": "µg/mL"}, {"measurement": "EC50", "setting": "[3]", "result": "> 6", "unit": "µg/mL"}, {"measurement": "EC50", "setting": "[4]", "result": 0.213, "unit": "µg/mL"}, {"measurement": "EC50", "setting": "[5]", "result": 0.116, "unit": "µg/mL"}, {"measurement": "EC50", "setting": "[6]", "result": 0.214, "unit": "µg/mL"}]}
{"binder": "Antibody 10 (antibody, V domains shown) VH: QVQLQQSGPGLVKPSQTLSLTCAISGDSVSSNSATWNWIRQSPSRGLEWLGRTYYRSKWYNDYADFLKRRITINPDTSNNEVSLRLTSVTPDDTALYYCARGGHITVFGVNIDAFDVWGQGTMVTVSS VL: DIQMTQSPSSLSASVGDRITISCRTSQSLRSYLHWYQQKPGKAPKLLIYASSTLQSGVPSRFSGSGSGTDFTLTISNLQPEDFATYYCQLSRTFGQGTKVEIK", "values": [{"measurement": "EC50", "setting": "[1]", "result": 0.058, "unit": "µg/mL"}, {"measurement": "EC50", "setting": "[2]", "result": 0.049, "unit": "µg/mL"}, {"measurement": "EC50", "setting": "[3]", "result": 2.7, "unit": "µg/mL"}, {"measurement": "EC50", "setting": "[4]", "result": 0.075, "unit": "µg/mL"}, {"measurement": "EC50", "setting": "[5]", "result": 0.034, "unit": "µg/mL"}, {"measurement": "EC50", "setting": "[6]", "result": 0.097, "unit": "µg/mL"}]}
